Data as given in patent US20120058100A1, “MODULATION OF DRUG RELEASE RATE FROM ELECTROSPUN FIBERS” (priority 2006, published 2012).

Experiment: Release of FITC-BSA from emulsion-electrospun PU, PLA and co-spun fibers in PBS
Assay type: physicochemical
Description: Polymers were dissolved in organic solvent and emulsified with a H2O/Poly(vinyl alcohol) mixture with the molecule to be released dispersed in the aqueous phase. Polyurethane (PU) was dissolved at 6 wt % in a mixture of chloroform and tetrahydrofuran. PLA was dissolved at 2 wt % in chloroform. Drugs were loaded into the PVA/Water mixture with aqueous volume fractions ranging from 10-20 vol %. Emulsions were loaded into plastic syringe fitted with a blunt tip 18-gauge needle and placed into a syringe pump.
Circular discs were punched out from the aluminum foil and polymer fibers removed from Al-backing. Samples placed in centrifuge tubes individual glass vials with PBS. Samples degraded in at room temperature (20° C.) on a rotisserie. The buffer was sampled at given intervals. Depending on release molecule, different spectrophotometric techniques were used to measure release profiles.
The concentration was determined fluorometrically by measuring […] at λ=495 nm. Samples were placed in 10 ml of PBS and 200 μl of buffer was used to run the assay and not replaced (total amount withdrawn from tube was less than 40% of total volume). Average concentration plotted over 360 hour time course (n=3).

FITC-BSA: fluorescein isothiocyanate conjugated albumin, a model protein
duration over which release can be achieved (PU and PLA fibers): ≥ 15 days
release from meshes of co-spun PLA and PU fibers relative to pure PLA or PU meshes (co-spun PLA and PU fibers): intermediate manner
release rate relative to doxycycline (electrospun fibers): much slower release rates
